The record followed here is IntAct's records for PubMed 16824542.

The chains are these.
B1: SH2B adapter protein 2 (Rattus norvegicus (Rat)), Q9Z200 (parent)
chain: MNGATPGSAAAPAPVPDWRQFCELHAQVAAVDFAHKFCRFLRDNPTYDTPDAGTSFSRHFAANFLAVFSEEVRRVLGTAADTMEPEPAVTSVTSALKTATYGHSRSSEDVSAHVATKARVRKGFSLRNMSLCVVDGVRDLWHRRASPEPEGGATPKTTEPVSEPRDKWTRRLRLARTLAAKVELVDIQREGALRFMVADDAASGPGGTAQWQKCRLLLRRAVAGERFRLEFFVPPKASRPKVSIPLSAIIEVRTTMPLEMPEKDNTFVLKVENGAEYILETIDSLQKHSWVADIQGCVDPGDSEEDTGLSCARGGCLASRVTSCSCELLTEADMPRPPETMTAVGAVVTAPHGRARDTVGESLAHVPLETFLQTLESSGGVSESNNTGDEGAELDPDAEAELELSDYPWFHGTLSRVKAAQLVLAGGPRSHGLFVIRQSETRPGECVLTFNFQGKAKHLRLSLNGHGQCHVQHLWFQSVFDMLRHFHTHPIPLESGGSADITLRSYVRAQGPPPDPGPAPNTAAPVPACWTEPAGQHYFSSLATATCPPTSPSNGAGASSSSGSSSSATSVPPRPAEGPLSARSRSNSTEHLLEAASGATEEPADATLGRARAVENQYSFY

This assay covers variants of B1. The conditions noted are these: with insr_human INSR.
As for R460A, the “effect of a mutation on the interaction” value is given as “disrupting interaction”. As for R442A, the entry is “decreasing interaction”. Regarding W475H, the “effect of a mutation on the interaction” value is “decreasing interaction”.
